From US20210038739A1 (JCR PHARMACEUTICALS, published 2021)
Each block holds one binder with its values, some of them ahead of it.

Legend:
[1] = biological target: T1, recombinant human TfR extracellular region with N-terminal histidine tag (Sino Biological Inc.) (human, UniProt P02786 89-760); assay: BLI (Octet RED96), His-tagged TfR ECD loaded on Ni-NTA sensor, antibody in solution; human TfR
T1 construct: also called r human TfR; r human TfR-ECD (Histag); not shown: Histidine tag at the N-terminus
Procedure: (§1) Purified anti-hTfR antibody No. 3 was diluted in two steps with HBS-P+ (10 mM HEPES containing 150 mM NaCl, 50 μM EDTA and 0.05% Surfactant P20), respectively, to prepare antibody solutions of 7 different concentrations, 0.78125 to 50 nM (0.117 to 7.5 μg/mL). These antibody solutions were used as sample solutions. The r human and r monkey TfRs were respectively diluted with HBS-P+ to prepare 25 pg/mL solutions, which were used as r human TfR-ECD (Histag) solution and r monkey TfR-ECD (Histag) solution, respectively.
(§2) Each of the sample solutions prepared above by 2-fold dilution steps was added, 200 μL/well, to a 96-well plate, black (Greiner Bio-One Inc.). Each of the r human TfR-ECD (Histag) solution and the r monkey TfR-ECD (Histag) solutions prepared above was added, 200 μL/well, to predetermined wells. To respective wells for baseline, dissociation and washing were added HBS-P+, 200 μL/well. To wells for regeneration were added 10 mM Glycine-HCl (pH 1.7), 200 μL/well. To wells for activation was added 0.5 mM NiCl₂ solution, 200 μL/well. The plate and biosensor (Biosensor/Ni-NTA: ForteBio Inc., a division of Pall Corporation) were set in the prescribed positions of Octet RED96.
(§3) The measurement was performed at 25 to 30° C.

[2] = biological target: T2, recombinant monkey TfR extracellular region (Macaca fascicularis) with N-terminal histidine tag (Sino … (Macaca fascicularis (crab-eating …, UniProt Q5RDH6 89-760 (Pongo abelii entry)))); assay: BLI (Octet RED96), His-tagged TfR ECD loaded on Ni-NTA sensor, antibody in solution; monkey TfR
T2 construct: also called r monkey TfR; r monkey TfR-ECD (Histag); not shown: Histidine tag at the N-terminus
T2 chain: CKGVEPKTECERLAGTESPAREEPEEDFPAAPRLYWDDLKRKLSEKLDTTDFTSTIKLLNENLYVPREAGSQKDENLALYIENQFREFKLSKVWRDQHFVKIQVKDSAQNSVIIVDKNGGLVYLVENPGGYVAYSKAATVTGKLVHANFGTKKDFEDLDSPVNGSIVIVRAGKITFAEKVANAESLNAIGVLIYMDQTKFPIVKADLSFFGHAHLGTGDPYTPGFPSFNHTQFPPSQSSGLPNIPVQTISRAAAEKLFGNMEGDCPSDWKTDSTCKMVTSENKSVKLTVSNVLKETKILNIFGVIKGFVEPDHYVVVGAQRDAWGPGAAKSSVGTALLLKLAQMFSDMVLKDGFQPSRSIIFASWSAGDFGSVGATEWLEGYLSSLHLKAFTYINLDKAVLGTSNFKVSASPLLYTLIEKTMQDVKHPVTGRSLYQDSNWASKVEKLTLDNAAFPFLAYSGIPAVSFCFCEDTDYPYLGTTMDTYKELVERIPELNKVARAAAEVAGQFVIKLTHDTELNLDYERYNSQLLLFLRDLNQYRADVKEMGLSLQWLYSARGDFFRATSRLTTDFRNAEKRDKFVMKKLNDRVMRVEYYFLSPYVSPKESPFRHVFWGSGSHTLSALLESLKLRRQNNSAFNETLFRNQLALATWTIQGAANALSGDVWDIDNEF
Procedure: as §1, §2, §3

[3] = biological target: T1, recombinant human TfR extracellular …; assay: BLI (Octet RED96) by the method of Example 7
[4] = biological target: T2, recombinant monkey TfR extracellular …; assay: BLI (Octet RED96) by the method of Example 7

- Kd [1]: ≤ 1 pM
- Kd [2]: ≤ 1 pM
B1: mouse anti-hTfR antibody No. 3 (antibody, V domains shown)
VH: EVQLQESGAELVRPGTSVKISCKASGYTFMNYWLGWVKQRPGHGLEWIGDIYPGGDYPTYSEKFKVKAILTADTSSSSVYLHLSSLTSEDSAVYFCARSGNYDEVAYWGQGTLVTVST
VL: DIVMTQTTLSLPVSLGDQASISCRSSQSLVHSNGNTYLHWYLQKPGQSPKLLIYKVSNRFSGVPDRFSGSGSGTDFTLKISRVEAEDLGVFFCSQSTHVPWTFGGGTKLEIKR
notes: Mouse hybridoma antibody; also called anti-hTfR No. 3; antibody of Clone 3 line

- Kd [3]: ≤ 1 pM
- Kd [4]: ~1000 pM
B2: humanized anti-hTfR antibody No. 3 (antibody, human IgG4 S228P, kappa, V domains shown)
VH: EVQLVQSGAEVKKPGESLKISCKGSGYSFTNYWLGWVRQMPGKGLEWMGDIYPGGDYPTYSEKFKVQVTISADKSISTAYLQWSSLKASDTAMYYCARSGNYDEVAYWGQGTLVTVSS
VL: DIVMTQTPLSLSVTPGQPASISCRSSQSLVHSNGNTYLHWYLQKPGQSPQLLIYKVSNRFSGVPDRFSGSGSGTDFTLKISRVEAEDVGVYYCSQSTHVPWTFGQGTKVEIKR
notes: The heavy chain is of IgG4 type; also called humanized antibody of anti-hTfR antibody No. 3
